What was measured:
[1] = target: receptor for Angptl2 expressed on mouse bone marrow hematopoietic stem cells (unidentified) (mouse); assay: flow cytometry; fresh mouse bone marrow cells, ~1 ug/ml Angptl2-hFc at 4 C for 30 min, anti-human IgG1-PE
[2] = target: receptor for Angptl2 expressed on mouse bone marrow hematopoietic stem cells (unidentified) (mouse); assay: flow cytometry; 4 day cultured mouse bone marrow cells, ~1 ug/ml Flag-Angptl2 medium

percent of total bone marrow cells that bind [1]	percent of total cells that bind [2]	Substance
12.8%		Angptl2-hFc (human Angptl2 fused to Pro 100-Lys 330 of human IgG1 Fc) (from UniProt Q9UKU9 23-493) (Fc fusion)
	5.3%	FLAG-hAngptl2 (human Angptl2 with a FLAG tag fused at the C-terminus) (from UniProt Q9UKU9 23-493) (ligand)

From patent US20070020757A1
